Experimental data as given in the DeepSol protein solubility set.

assay: soluble on expression in E. coli; label from the status in PepcDB or PDB records

| Sequence | soluble on expression in E. coli |
| --- | --- |
| LTVHYDLQLYKINYKTQSPDGNLTIASGLVAMPIHPVGQVGIISYQHGTRFERNDVPSRNNEKNYIYLAAYGNSAGYMTVMPDYLGLGDNELTLHPYVQAETLASSSIDMLFAAKELANRLHYPISDKLYLAGYSEGGFSTIVMFEMLAKEYPDLPVSAVAPGSAPYGWEETMHFVMLEPGPRATAYLAYFFYSLQTYKSYWSGFDEIFAPPYNTLIPELMDGYHAVDEILQALPQDPLLIFQPKFSNGIISKTDRNTEILKINFNHYDFKPTAPLLLVGTKGDRDVPYAGAEMAYHSFRKYSDFVWIKSVSDALDHVQAHPFVLKEQVDFFKQFERQE | not soluble |
| MARKLFTPITIKDMTLKNRIVMSPMCMYSSHEKDGKLTPFHMAHYISRAIGQVGLIIVEASAVNPQGRITDQDLGIWSDEHIEGFAKLTEQVKEQGSKIGIQLAHAGRKAELEGDIFAPSAIAFDEQSATPVEMSAEKVKETVQEFKQAAARAKEAGFDVIEIHAAHGYLIHEFLSPLSNHRTDEYGGSPENRYRFLREIIDEVKQVWDGPLFVRVSASDYTDKGLDIADHIGFAKWMKEQGVDLIDCSSGALVHADINVFPGYQVSFAEKIREQADMATGAVGMITDGSMAEEILQNGRADLIFIGRELLRDPFFARTAAKQLNTEIPAPVQYERGW | soluble |
| QETGISMIGERTNSNGSKAFREAMLSGDWEKCVDIAKQQTRDGAHMLDLCVDYVGRDGTADMATLAALLATSSTLPIMIDSTEPEVIRTGLEHLGGRSIVNSVNFEDGDGPESRYQRIMKLVKQHGAAVVALTIDEEGQARTAEHKVRIAKRLIDDITGSYGLDIKDIVVDCLTFPISTGQEETRRDGIETIEAIRELKKLYPEIHTTLGLSNISFGLNPAARQVLNSVFLNECIEAGLDSAIAHSSKILPMNRIDDRQREVALDMVYDRRTEDYDPLQEFMQLFEGVSAAD | not soluble |
| MTTLKLFDIEHAWGLPRKVSPRFGARLILRGLHLDYLHDRASFVGEFPPAIKQQFVEAFPAMVKQLERLVATGEIDTTEQHCVSIEHAGFTCEADTLGSHGYLYIAIYQTKAKPLTTSNLTITR | not soluble |
| LDPSGKSVIYTKSLAFEKALVRPEKEVKKVHTALDALNSSLADGRGVDFAYMMSIYQVESQMTLIEELGDLIMPDPEKYLNGELTYVSRQDFLSGDVVTKLEVVDLFVKQDNQDFNWSHYAGLLEAIKPARITLADIDYRIGSRWIPLAVYGKFAQETFMGKAYELSDQEVATVLEVSPIDGVITYQSKFAYTYSNATDRSLGVPASRYDSGRKIFENLLNSNQPTITKQVVEGDKKKNVTDVEKTTVLRAKETHLQELFQGFVAKYPEVQQMIEDTYNRLYNRTVSKSYDGSHLTIDGLAQNISLRPHQ | not soluble |
| MPAAQEVQISIAEVIEVRGYGLNAPELLSVAVSAADRLPPCPKGTVFDTENVFLNSKGELVIKTVATSRVDRSFVPPEWAKGEEDAQAAAVYCLGAVLRAAGAEEAADVDLFSLVNILTVAMTGTRPTAHRMGQMARNQLRGRDPASMLMCIYEELMGDEDTNQKRPNRKINFLNEKSMF | not soluble |
| MSDQLQMTDGMHIIVEALKQNNIDTIYGVVGIPVTDMARHAQAEGIRYIGFRHEQSAGYAAAASGFLTQKPGICLTVSAPGFLNGLTALANATVNGFPMIMISGSSDRAIVDLQQGDYEELDQMNAAKPYAKAAFRVNQPQDLGIALARAIRVSVSGRPGGVYLDLPANVLAATMEKDEALTTIVKVENPSPALLPCPKSVTSAISLLAKAERPLIILGKGAAYSQADEQLREFIESAQIPFLPMSMAKGILEDTHPLSAAAARSFALANADVVMLVGARLNWLLAHGKKGWAADTQFIQLDIEPQEIDSNRPIAVPVVGDIASSMQGMLAELKQNTFTTPLVWRDILNIHKQQNAQKMHEKLSTDTQPLNYFNALSAVRDVLRENQDIYLVNEGANTLDNARNIIDMYKPRRRLDCGTWGVMGIGMGYAIGASVTSGSPVVAIEGDSAFGFSGMEIETICRYNLPVTIVIFNNGGIYRGDGVDLSGAGAPSPTDLLHHARYDKLMDAFRGVGYNVTTTDELRHALTTGIQSRKPTIINVVIDPAAGTESGHITKLNPKQVAGN | soluble |
| MRTHDDTWDIKTSVGTTAVMVAAARAAETDRPDALIRDPYAKLLVTNTGAGALWEAMLDPSMVAKVEAIDAEAAAMVEHMRSYQAVRTNFFDTYFNNAVIDGIRQFVILASGLDSRAYRLDWPTGTTVYEIDQPKVLAYKSTTLAEHGVTPTADRREVPIDLRQDWPPALRSAGFDPSARTAWLAEGLLMYLPATAQDGLFTEIGGLSAVGSRIAVETSPLHGDEWREQMQLRFRRVSDALGFEQAVDVQELIYHDENRAVVADWLNRHGWRATAQSAPDEMRRVGRWGDGVPMADDKDAFAEFVTAHRL | soluble |
| MRVLVKLSGEALSGEGGRGFDPERVNYIVNEIKSAIEEGFKIGIVVGAGNLFRGVELKNLTMTRADQIGLLGTVMNSVYLKDIFERSGLKARIYSQIVNLPDVERVNYDSIESALRENSILIFAGGTSNPFFTTDTAAVLRAQEMRAKLVVKATKVDGVYDKDPKKFPDAKKIPHLTFSEAMKMGLKVMDAEAFALCKKLGITVKVINFFEPGTLLKALKGEDVGSTVVPD | soluble |
| MKGQLAFDLPIRPALSREDFFISPANALALASLDGWRDWPRGKMVLVGPRGSGKTHLAHIWAAQAEARLIPAEALARADLPALAADGAVAVEDAERLGGDRAAEEALFHLHNLMLERAGALLITAAGPPRDWGLGLADLKSRMQAASVTRLEAPDDALLSAMLVKLFTDRQIAVPGMLVPWLVARMDRSCEAARALVAALDARSLAERRPISRQMAAELLGLTATDLEHHHHHH | not soluble |
| MSLGRKIKKETMIFPRYHQLRAVRELEDAARTEGPGHNYLVEHSAGSGKSNTIGWLAHRLASLHNESDHKVFDSVIVITDRRVLDRQLQDTIYQFEHRQGVVQKIDEDSRQLAEALTNSVPIIISTLQKFPFVARQLARMAEERREGADGILPTRRCAVIIDEAHSSQSGETATDLKEVLGGHVLREEAARYAVDEGVDNLDELYRSMAKRGRQTNLSFFAFTATPKHKTLAVFGRDEAGKAGQPFHRYTMSQAIEEGFIMDVLKNYTTYATYYKLVKASEDDPNVERKQAAKALARFMRLHPYNIAQKTEVMVEHFNAVTRHKVGGKAKAMVVTGSRLEAVRYKLAFDAYIREKGYSWIKTLVAFSGEVVDDELPGKTWTEVGMNGGIKEGVLPEKFDSSEYQVLLVAEKYQTGYDQPLLHTMYVDKRLAGIQAVQTLSRLNRMHPLKEDTFVLDFVNDRQEIKEAFKQYHEGAEMGEEADPNQMYAIKAELDASGIYLLEEMQRFIGIYFKPKQRQSPADHQAMNAALDPAVDRFRAVQEEDEEQAELWRGKLSAFRNLYAFLSQVAPYQDSDLERLYTFLRFLSPKLPKRTTGQRYSFDDEVRLEYYRLQKISEGSISLRDGKAELLDGPGEVGSGARHDEDVPLSSLIDVINERFGTDFTDADQLFFDQIIEAAMEDGSLLEAAAVNPEEKFALLFAGLLETLFIERMEQNEDIFARFMNERDFQSLVSKWISGKVYARLREGHHHHHH | not soluble |
| MYIPKYFKVTNAEEIWNFVQENSFGTVVTTEQGKPIATHLPLGFNKKDDHYYITGHFAYGNPQWRTFEACEDVLVMFQGPHAYISSSWYSRENVPTWNYQAVHMYGKASMLEKDELAEELTIMLEQKTPTQAFSVLWDKLSPKLLESELKGIVGFKIKVEDIQAAYKLSQNRNETDYMNVIEQLQNEENPNAKQMAELMEDKLKKQI | not soluble |
| MGSDKIHHHHHHMETLILTQEEVESLISMDEAMNAVEEAFRLYALGKAQMPPKVYLEFEKGDLRAMPAHLMGYAGLKWVNSHPGNPDKGLPTVMALMILNSPETGFPLAVMDATYTTSLRTGAAGGIAAKYLARKNSSVFGFIGCGTQAYFQLEALRRVFDIGEVKAYDVREKAAKKFVSYCEDRGISASVQPAEEASRCDVLVTTTPSRKPVVKAEWVEEGTHINAIGADGPGKQELDVEILKKAKIVVDDLEQAKHGGEINVAVSKGVIGVEDVHATIGEVIAGLKDGRESDEEITIFDSTGLAIQDVAVAKVVYENALSKNVGSKIKFFRI | soluble |
| MKAEGLSGGYGDSRLINNVSLTVEKGEFLGILGPNGSGKTTLLHLLTGTLPAKKGRVYLAGKLLADYKPKELAQIMAVLPQKMDQAFTFTVEETVAFGRYPFQTGLFRQQTEKGEAIVQEAMEQTGVADFAQKPIRELSGGEQQRVYLAQALAQQPRILFLDEPTNFLDLAYQKDLLDLIKRLTRESGLAAVSVFHDLNTASLYCDGLMFMKNGTAGPKQKPEYAVTEQSIKAVYDTDVTALVHQSSPKPMIVIQPEKDSVKRQSIPFEALLQAGRDDILLQTEIPLRTLSSTPIGAGFSWSRTLIHKRLPDQPDPIEGLTACLSESGFQLQETCAMASSERLDRFVYRTYEDGELSVFICVQTGFSIWILINGYAADQFFIKALMAAEAERTKVLGDGGGTGDILIAATQTQQSENIEQRLNQLIKKGTAECIKEAAELF | not soluble |
| MSLEFLIYSLPEEVLREEMLGNFSVALKLIDDFLKKDLPLLQRERLIYEKERIERLLEDYPFTEKEAMEKMREMFEGFSEGEFQYLMNEGVLDYIVVEGEKRFERRFFHNLAFVRSEYRERLRKDERSEKARRILHERLERLIKGEDPKRYRIRARITLKLKETSSKHRVWLPFPKESLQIESVKLLRTSHKSYYISPNDVPQRTIYFEGEDSTFFVEFEYIVREWVNHVDPERVSEKVAGFEEFLKEEPPHIVFTPKLRWLTQTVVGSEVNPYLKAKRIYDWITLNVRYSYVKPYALYENITDFVVNNLKGDCGFQALLFITMCRIAGVPARWQSGWYINPIFGSPHDWALFYVEPYGWLPADLSFGGARRDNESFRSFYFGNLDGFRMVANDGFMKDFDPKTRFVRSDPTDNQVGEAESEEKRLPFESTIEVISFEEVEGGSHHHHHH | soluble |
| MPDTSPDLPAMSPLAVYRQAVEQRGFAPDEAQRRAAEALERCFQALHEAHRHGAIQGVYLWGPVGRGKTWLMDHFYQCLRVPARRQHFHHFMQWVHQRQFELTGTADPLRALARELARDVRVLCFDELFVSDIGDAILLGSLLRIMFEEGVVLVATSNQPPEQLYADGFNRERFLPAIEAIQRHMAVVAVDGGQDHRLHPGRAEQRYWVVEAGQASGFAELFARLSAGEAASTQPIELGHRPLAVHRHSESVLWCSYAQLCEAPLSALDFIGLCDRYRAILMDDLPCLSASQREGRIARGTEDGAQLVEAGDRELPQLSVHDDGVRRFIALVDECYDRKVPLYLEARVPLEALYTEGYLAFAFRRTLSRLREMQLARFGSDSAG | not soluble |
| MHHFSAGRSNSIGLRQSVSDKGIEIVNLLAPKVEMLGFDLLGAEYLLVPSGAILRLYIDIPFAMQPECMVSIDDCERVSREVSAYLDLEEPISGNYTLEVSSPGLDRRLFTLEQFARHHNHLVKVGLKLQQHGSRRLQGKIVRVEQVGGFVVLLVNGVELAVDFNNIDKARIVPDWSALGLAPLEKSKHDTKKMSQGSKKPSNESAARQAVRGVIR | not soluble |
